Test results: patent CN116355088A

Experiments:
生物素标记的抗原多肽 (human) = 生物素标记的抗原多肽 (human) (UniProt P29400); assay: BLI (Fortebio Octet), biotinylated peptide on SA biosensor, antibody at 100 to 1.56 nM
人IV型胶原蛋白α5链多肽 (human) = 人IV型胶原蛋白α5链多肽 (human) (UniProt P29400); assay: indirect ELISA, plate coated with 0.5 μg/ml peptide, purified antibody in 3-fold dilutions from 1 μg/ml

Kd (生物素标记的抗原多肽 (human)): 3.18 nM
EC50 (人IV型胶原蛋白α5链多肽 (human)): 0.0221 µg/mL
B1: 18G6-2 (antibody, V domains shown)
VH: QVQLQQPGAELVKPGASVKVSCKASGYTFTNYWMHWVKQRPGQGLEWIGRIHPSDSAINYSPKFTGKATLTVDKSSSTAYMQLTSLTSEDSAVYYCAIGGYDSYWGQGTLVTVSA
VL: DIQMTQTTSSLSASLGDRVTISCRASQDISNYLNWYQQKPDGTVKLLIYYTSTLHSGVPSRFSGSGSGTDYSLTINSLAQEDIATYFCQQVNTLPWTFGGGTKLAIK
